The supplement of paper PMC12636428

Tested on: Saccharomyces cerevisiae
Test: transcriptional activation domain activity (GFP:mCherry ratio, weighted mean of sorted bins, harmonized to initial dataset scale) (arbitrary fluorescence ratio units); higher = stronger transcriptional activation
Settings: beta-estradiol 1 µM; induction time 4 h
Outline: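 Barcoded protein tiles fused to an estradiol-inducible synthetic transcription factor were integrated at the yeast URA3 locus, in diploids carrying a GFP reporter. Cultures were diluted 1:5 into SC with 1 uM beta-estradiol, held 4 hours at 30 °C, sorted into 8 bins by GFP:mCherry ratio, and barcodes sequenced. Tiles under 50 reads were discarded. Activation activity is the read-weighted mean of bin median fluorescence, averaged across barcodes, then linearly mapped onto the initial dataset scale.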

Sequence: AAGGSSSQAQITVNPGAKAEEEAEEDEGQLVQRMARRGIKSHVFVGSEIVQIP
- transcriptional activation domain activity: 33900

Sequence: VVAYGSGKEEGMKVEGEGEGGKVLRDIIDKLGHALTSTRFAGLPLPHVLAVVK
- transcriptional activation domain activity: 69700

Sequence: KILVQAFKAVFTSPSSAKEADGDGEGADIIENNRRARRALYQVKVKTCVASII
- transcriptional activation domain activity: 42000

Sequence: TYPVSMPFDGTLNLDLDMCFLDVTNTDINFSDIFDPNFQFGSYGFPLSLDYDI
- transcriptional activation domain activity: 139000

Sequence: LGLSIWTPWKDVYTRLPKRIYAKLLATAEMEVKYKPKVLVSQIWNAVIISMYR
- transcriptional activation domain activity: 61600

Sequence: KGRSRENSRQRGNEDRVARGRDESRSRKTGGREASEDRGRSISRQWTPKPAKR
- transcriptional activation domain activity: 22600

Sequence: MPPRYIRYADRAVIENLSWYYWVFNPIMIGLYGPVRTIIDIYFRYFYNCILLF
- transcriptional activation domain activity: 40100

Sequence: KDNATTAAVAAASSEKDDEKKAKEENKPDDKKTEEKKAEEKKSDDTAKDDASK
- transcriptional activation domain activity: 34300

Sequence: MVPFSYVWEFYFFLMSMGGLGFHIFGLGHIFLFTSHIISFFIIGYWCCLICTK
- transcriptional activation domain activity: 57200

Sequence: FLLLMFQGLDIFTPVIRVLHFRICLLLLLLIILLAVPLLFSYIIFSRPFLSLV
- transcriptional activation domain activity: 43900

Sequence: WDWARRYHCLAWGGEVSLLSFLPLLPVCLLSWLCRVSPIKWALVAVFFFWLLG
- transcriptional activation domain activity: 65900

Sequence: MMELEGWDGGPYIWVDLVILFWLFVILLDWFFLLAIFSTVRGSPGLVGVFFFF
- transcriptional activation domain activity: 52100

Sequence: DKDEDAGAVEGEGGVVNANGKKTSGDEAGGERKKKQKQKEREKGGEDGAGKKG
- transcriptional activation domain activity: 47700

Sequence: MLYQLFYFSRTKLIILVFFVLFSLLIISLFFFLFIPPFTFFFPFHMPEVFQNI
- transcriptional activation domain activity: 38200

Sequence: FFHVTIRVASQGCGIGFAILGFGNLGLFLAFLILGAEGYFSLVLCTFRFVISW
- transcriptional activation domain activity: 78100

Sequence: MGARYWILECGDWLMAKAVPNSLPIVSFLFLLFFPWPFFVFILYLTLIALYSS
- transcriptional activation domain activity: 42400

Sequence: LNTFLDSFIFQLFPMVADLWIAAAYFFLYFDAFYSLIIIATTWLYIYITIYMA
- transcriptional activation domain activity: 58800

Sequence: WLMYYIHATGDTKVSLPFNPSRVIKINMVLLSHLVAWINYLPLVVSYVHWRYW
- transcriptional activation domain activity: 51000

Sequence: HIDSFLDQMCKVAEGGGFSLSTLADCVILFRDLARIYQEPFSSPFLRLLYAYT
- transcriptional activation domain activity: 65300

Sequence: TVEFLLPFLSFSLLGCLFIFYFIFFLCFLFFFSQTFCFFISSNCWCFVSNLLP
- transcriptional activation domain activity: 34700

Sequence: SGQSVVWEAQKLVHKGFLIDAHVVVVFYVMGCFFIYVLARLRCSNPKLIVMQI
- transcriptional activation domain activity: 62800

Sequence: MMKVVGFLYQIYLIIYCVGWWFLLLVLFVFSFSFFFFLFFFFLFFSSTFYSLS
- transcriptional activation domain activity: 43100

Sequence: MSGTNNSAAPPSYFDKAKDAMHSVVGNLTGHDDKETSSKPYVPTVSSACTAVV
- transcriptional activation domain activity: 61800

Sequence: MLAWIYGVFFSRSIMYCPLILLITCALDFHFFYFSYLFLWGLFRLRGYIYHGW
- transcriptional activation domain activity: 52000

Sequence: TRHLHFTRYHIFTNSKCILLAVGKLLYCACALGWYGLIVGFVVTVLMLCQDSL
- transcriptional activation domain activity: 22600

Sequence: VVCHFVIMMASMSYKIVICVIIGVHADLMVMDARWRSLGSWLYLLCGVIVAPA
- transcriptional activation domain activity: 67300

Sequence: MSSWDGTQGSSSNGQVRKRRRIALACDSCRARKSRCDGRRPQCSSCAGQGTKC
- transcriptional activation domain activity: 43400

Sequence: MKTPPPQLGFFVGVLVLYAFFFIFLFFYFLFYGDIHLKQEDIIYVWNTYWAIW
- transcriptional activation domain activity: 20200

Sequence: RWSYLRTSEMILTFFYKNIMWTLVLFWYQLFCGFSGTMMFDYSYITLYNLVFT
- transcriptional activation domain activity: 63200

Sequence: NEENIRREQDAADEIAQKLRDDIRSRTGCDVSVGIGSNILQAKVALRKGKPAG
- transcriptional activation domain activity: 35200

Sequence: SSRSRSVSRQPPSPHEEEQEDAEEREAEDGKGGGGEGEREHQSRESSPAPART
- transcriptional activation domain activity: 27100

Sequence: VDNLLLPLAIHHRFLSYCLYIIGFVYFVYSLEKGHYKFQFTQFCITHMTLFLV
- transcriptional activation domain activity: 50900

Sequence: GEGKRGGVGKKGKGKTKGKEGSIGKSNAKKGASETPKKEKEKARGAEASDKGS
- transcriptional activation domain activity: 45600

Sequence: PVKADEPAAPVEAVKETETAAPVEDAAAPEVAAEAPKEEVKEEKVRSLRTAIS
- transcriptional activation domain activity: 27300

Sequence: EEEGAVDEDEEEEDEEDPEERRKRELRERMAKMSGGMGMAGMFGGGMPMPGAA
- transcriptional activation domain activity: 58900

Sequence: MTNRLHIVCHICVFYGYILMFQAITSYHYFILLCILILILHLLTFILVYLYKD
- transcriptional activation domain activity: 38400

Sequence: ETEGAEETSDAEGNESAGKQKKRARKSSHASSRSRTGAQNKKSTVEQKSTFRG
- transcriptional activation domain activity: 51600

Sequence: MNAFRPLHFLFYFIFLLLSMKALRFFIFSIFFFIFLHLHLCIHIYIALLFSYP
- transcriptional activation domain activity: 30600

Sequence: GTKKEEKGEKDKTETKKSKKSSKHNKVTSKKSSSKKSTRKAAISDADSSDDSS
- transcriptional activation domain activity: 35100

Sequence: MLQHSWCFIFRLFDPLFFFFFFFFSTWNAIVGRWVFSLSFEPFFVRLLHLILY
- transcriptional activation domain activity: 37700

Sequence: LCMELVLHYIYVVAISNSSPDWSAYTPFQLSMLGYFNLHHIWLKLLIPWRFFR
- transcriptional activation domain activity: 63800

Sequence: CGQILLTICLLPLLFFFFFFFFWSKGVSPFLSHLSSVLLIMLGRIMQIVVGLW
- transcriptional activation domain activity: 38300

Sequence: GELLYIILSIVDVDLICRFTIIHPIPTFDNLTALNMVIDRMQEVGLYLVYDMR
- transcriptional activation domain activity: 52300

Sequence: YADMLMRIWSVWEFALWQYVSNEEFMGLLGFSRLRFRRMYLLVNNGCLFWRIF
- transcriptional activation domain activity: 72400

Sequence: EYFYYKMLAPSAATVFYVYVGLIKMSIALFNIRLTTLTTKLWGNVNWAFFVIC
- transcriptional activation domain activity: 63000

Sequence: MFPFVFLSSFLSCFRLYSFNTCYIFSLILLCWYTFLLSYNGSLFCYPMIVYFL
- transcriptional activation domain activity: 70400

Sequence: TPFALFSSCYALNATVDQDYPLLFRRCVLGDTLWVLAILLCILWSLLVCFAFW
- transcriptional activation domain activity: 31300

Sequence: TQAGPSTGGGVFGQPSQPSTSTNAFGGGNGLFGSKPTTGFGTATTPAAGVPAP
- transcriptional activation domain activity: 53600

Sequence: MAKKGSASTDKKAADKSDKKGKAKATTDDGEEKQAKGKGSLKAATAVNVRHIL
- transcriptional activation domain activity: 36900

Sequence: AMAEKAAEEKPAAKKRGRPPKGPTMVEVVVEAPPAKKRGRPAKEDGAAAAATA
- transcriptional activation domain activity: 20000

Sequence: FYGYFNVLKIYLIKYRSSEVFFFFFDFLMYTENEWFITNLFFLLSFILHLGFF
- transcriptional activation domain activity: 60200

Sequence: THYLCFIFSPRKLWPMNTQVSIPLFHLLILPVSPWIKQLYWLVFWNLFFVWWM
- transcriptional activation domain activity: 56200

Sequence: LHLFGLVLVWVSYLLFWVFLLFSFVYPDWLLALFILRIILFLFSFSVILFYFI
- transcriptional activation domain activity: 47100

Sequence: MHPILSCLVSIVCPIMHILLLAVLLFLNTLSRLILAFTYTTFSLFVFSVQLTP
- transcriptional activation domain activity: 71500

Sequence: MIAVFFYYFLLFFYITCEFPVLCCGSLFFFFFFFFCFCDIYCISFCLLAHYHY
- transcriptional activation domain activity: 44300

Sequence: PLFSILFSLSSFLSLPCPAHGCGPVGSWWSCLFLLFFFLSLLVMLSLLWCFGF
- transcriptional activation domain activity: 41000

Sequence: RKARQAQGAQGGGGGGAGGPGARGGARGGRVGGERGGRGGGRGGERGRGRGRG
- transcriptional activation domain activity: 51400

Sequence: DSRRKRNTSSEEDEPKKTDREERRREYRSRDHNVADEERSNKHRSSRRKHRSA
- transcriptional activation domain activity: 7300

Sequence: GIYAFGKMYFIPYLLSNHWVVMLTYLQHSDPTIPVYRRGQWSFVRGALSTIDR
- transcriptional activation domain activity: 41800

Sequence: LDKVADPDYHPAVENSDVEEVMAAWRKTVREEALGVVEAGGGNVPGRGRVEVK
- transcriptional activation domain activity: 48000

Sequence: AASQNVDAQPKPKPAQDNDLESESGTSSSSSSSSESGSESDSGSDDGSASGSG
- transcriptional activation domain activity: < 6570
